Five molecules from patent US12613245 (CORNELL UNIVERSITY, dated 2026) can be followed below.

The target of test [1] is T1, native cell surface CEMIP/KIAA1199 on human MKN45 gastric and N2LA lung cancer cells (human, UniProt Q8WUJ3 31-1361).
T1 construct: Endogenous CEMIP on live CEMIP-high human cell lines (MKN45, N2LA), the target in flow cytometry; also called native CEMIP expressed on the surface
T1 sequence: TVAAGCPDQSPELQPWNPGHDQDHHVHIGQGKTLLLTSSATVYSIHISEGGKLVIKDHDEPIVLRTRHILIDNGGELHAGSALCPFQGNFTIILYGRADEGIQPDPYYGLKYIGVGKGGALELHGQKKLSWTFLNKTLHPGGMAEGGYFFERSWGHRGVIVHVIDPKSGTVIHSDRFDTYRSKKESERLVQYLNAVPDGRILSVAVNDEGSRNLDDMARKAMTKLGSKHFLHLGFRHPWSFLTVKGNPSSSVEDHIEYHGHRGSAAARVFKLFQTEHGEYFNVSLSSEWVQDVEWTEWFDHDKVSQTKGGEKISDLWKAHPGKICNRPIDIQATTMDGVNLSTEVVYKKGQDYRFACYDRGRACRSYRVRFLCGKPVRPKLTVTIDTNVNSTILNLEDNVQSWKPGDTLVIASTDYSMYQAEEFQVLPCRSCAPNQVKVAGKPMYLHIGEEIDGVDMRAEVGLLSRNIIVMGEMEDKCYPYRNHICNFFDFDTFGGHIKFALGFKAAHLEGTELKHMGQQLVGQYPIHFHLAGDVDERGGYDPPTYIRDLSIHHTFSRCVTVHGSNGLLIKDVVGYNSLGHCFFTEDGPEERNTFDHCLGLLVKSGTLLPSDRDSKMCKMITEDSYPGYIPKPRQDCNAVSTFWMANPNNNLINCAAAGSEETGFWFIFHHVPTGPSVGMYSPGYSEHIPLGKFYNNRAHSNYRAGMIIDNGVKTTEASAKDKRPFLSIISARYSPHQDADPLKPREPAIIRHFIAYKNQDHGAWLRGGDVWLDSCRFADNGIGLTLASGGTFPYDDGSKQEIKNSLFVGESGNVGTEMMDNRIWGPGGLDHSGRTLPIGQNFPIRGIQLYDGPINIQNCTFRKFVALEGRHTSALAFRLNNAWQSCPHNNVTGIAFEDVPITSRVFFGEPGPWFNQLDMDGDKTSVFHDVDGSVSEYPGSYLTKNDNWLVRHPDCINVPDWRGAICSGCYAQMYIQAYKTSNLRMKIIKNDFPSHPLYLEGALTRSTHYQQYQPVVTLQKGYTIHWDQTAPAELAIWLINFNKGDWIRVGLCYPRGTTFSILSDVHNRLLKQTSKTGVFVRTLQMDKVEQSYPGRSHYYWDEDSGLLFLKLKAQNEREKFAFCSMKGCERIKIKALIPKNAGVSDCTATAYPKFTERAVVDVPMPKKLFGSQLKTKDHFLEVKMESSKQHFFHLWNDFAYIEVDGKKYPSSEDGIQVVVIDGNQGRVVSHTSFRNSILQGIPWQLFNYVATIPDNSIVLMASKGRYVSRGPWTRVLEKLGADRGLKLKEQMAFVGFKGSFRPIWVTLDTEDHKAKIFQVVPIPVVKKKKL
Put plainly: flow cytometry on MKN45 cells. For orientation: Flow cytometry measures light scatter and fluorescence of single cells or particles in a stream.

Test [2] addresses T2, recombinant/purified KIAA1199/CEMIP protein (amino acids 1-649) (human, UniProt Q8WUJ3 31-649).
T2 construct: Truncated CEMIP used as immunogen and as ELISA antigen; also called truncated version of KIAA1199/CEMIP protein
T2 sequence: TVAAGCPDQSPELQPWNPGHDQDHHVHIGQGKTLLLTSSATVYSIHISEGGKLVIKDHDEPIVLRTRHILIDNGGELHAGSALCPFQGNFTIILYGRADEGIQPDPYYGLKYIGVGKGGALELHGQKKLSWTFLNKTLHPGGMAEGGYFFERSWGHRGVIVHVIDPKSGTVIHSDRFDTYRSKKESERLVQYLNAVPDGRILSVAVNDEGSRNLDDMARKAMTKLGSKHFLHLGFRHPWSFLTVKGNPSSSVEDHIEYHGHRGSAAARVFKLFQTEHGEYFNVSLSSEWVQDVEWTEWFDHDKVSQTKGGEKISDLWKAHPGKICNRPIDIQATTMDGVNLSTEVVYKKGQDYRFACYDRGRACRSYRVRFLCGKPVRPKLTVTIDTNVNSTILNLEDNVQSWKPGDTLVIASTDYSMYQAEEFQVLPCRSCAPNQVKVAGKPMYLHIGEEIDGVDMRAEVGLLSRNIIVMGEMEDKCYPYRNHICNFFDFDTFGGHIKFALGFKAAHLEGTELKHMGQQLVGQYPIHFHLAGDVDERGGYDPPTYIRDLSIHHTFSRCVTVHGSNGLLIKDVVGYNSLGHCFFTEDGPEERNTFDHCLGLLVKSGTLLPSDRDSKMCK
Description: ELISA on recombinant CEMIP, purified antibody (with flow cytometry as second assay). Background: An ELISA detects its analyte on a solid surface through an enzyme-linked reagent.

Test [3] has as its target T1, native cell surface CEMIP/KIAA1199 on …. Description: flow cytometry on live MKN45 and N2LA cells, purified antibody. The method, then: The binding of anti-CEMIP antibodies to native CEMIP expressed on the surface of human MKN45 gastric and N2LA lung cancer cell lines is shown.
Purified monoclonal antibodies were tested in secondary flow-cytometry screens on 2 CEMIPhi cell lines, MKN45 and N2LA (FIG. 13). Flow cytometry is performed on live cells, and antibodies bind to the native cell surface CEMIP/KIAA1199. Three antibody clones with high affinity and specificity for human KIAA1199/CEMIP were identified from the first screen: 07F11C02, 10F01B02 and 01F11A01, and the sequence of these antibodies was obtained (Table 12). One of these clones resulted from the protein immunization and two resulted from the DNA immunization (FIG.

Substitutions are numbered along the chain they refer to.

B1: 12D02 (antibody, mouse IgG1, kappa, V domains shown)
VH: EVQLQQSGPELVKPGASMKISCKASGYSFTAYTMNWVKQSHGENLEWIGLINPYNGGTTYNQKFKGKATLTVDKSSSTAYMELLSLTSEDSAVYYCASYDYGYAMDYWGQGTSVTVSS
VL: DVLMTQTPLSLPVSLGDQASISCRSSQSIVHRNGNTYLEWYLQKPGQSPKLLIYKVSNRFSGVPDRFSGSGSGTDFTLKISRVEAEDLGVYYCFQGSHVPWTFGGGTKLEIKR
notes: Mouse monoclonal from hybridoma (second phase screen), IgG1 kappa; also called cAb5775
As to B1, the binding result in test [1] and in test [2] was “binds” each time.

B2: 12A12 (antibody, mouse IgG1, kappa, V domains shown)
VH: B1 VH with A16V
VL: B1 VL with N33S
notes: Mouse monoclonal from hybridoma (second phase screen), IgG1 kappa; also called cAb5776
Consider B2, for which the binding result in test [1] and in test [2] was “binds” each time.

B3: 07F11C02 (antibody, mouse IgG2a, kappa, V domains shown)
VH: DVQLVESGGGLVQPGGSRKLSCAASGFAFSSFGMHWVRQAPERGLEWVAYISSASNTIYYADTVKGRFTISRDNPKSTLFLQMTSLRSEDTAIYYCAKRDWDLYAMDYWGQGTSVTVSS
VL: DIVMTQSQKFLSTSVGDRVTITCKASQNVGTAVAWYQQKPGQSPELLIYSASNRHTGVPARFTGSGSGTDFTLTITNMQSEDLADYFCQQYSSSPTFGGGTKLESKR
notes: Mouse monoclonal purified from hybridoma, IgG2a kappa; also called cAb4853
Regarding B3, the binding result in test [3] is recorded as “binds”.

B4: 12D08 (antibody, mouse IgG2a, kappa, V domains shown)
VH: EVQLQQSGAELVKPGASVKLSCTASGFNIKDTYMHWVKQRPEQGLIWIGNIDPANGHTKYAPKFQGKATITADTSSNTAYLQLSSLTSEDTAVYYCARSNDYDVDFDYWGQGTTLTVSS
VL: DIVMSQSPSSLAVSAGEKVTMSCKSSQSLLNSRTRKNYLAWYQQKPGQSPKLLIYWASTRESGVPDRFTGSGSGTDFSLTISSVQAEDLAVYYCKQSYNLYTFGGGTKLEIKR
notes: Mouse monoclonal from hybridoma (second phase screen), IgG2a kappa; also called cAb5777
For B4, the binding result in test [1] and in test [2] was “binds” in each case.

B5: 13G04 (antibody, mouse IgG1, kappa, V domains shown)
VH: EVHLQQSGPELVKPGASMKISCKASGYSFTAYTMNWVKQSHGKNLEWIGLINPYNGGTTYNQKFKGKATLTVDKSSSTAYMELLSLTSEDSAVYYCASYYGGRGWYFDVWGAGTSVTVSS
VL: DIVLTQSPASLAVSLGQRATISCRASKSVSTSGYSYVHWYQQKPGQPPKLLIYLASNLESGVPARFSGSGSGTDFTLNIHPVEEEDAATYYCQNSRELPYTFGGGTKLEMKR
notes: Mouse monoclonal from hybridoma (second phase screen), IgG1 kappa; also called cAb5778
B5: the binding result in test [1] and in test [2] was “binds” throughout.
